The data set addresses PU.1 (recombinant) (mouse, UniProt P17433 1-272). Description: EMSA.

B1: c-fms -150 PU-ets wild type (dsDNA)
DNA 1: GCCCAAGGAGGAGGAAGAGGAAAACAAG
DNA 2: CTTGTTTTCCTCTTCCTCCTCCTTGGGC
In the case of B1, the binding result is “binds”.

B2: c-fms -150 mutant M1 (MT-1) (dsDNA)
DNA 1: GCCCAAGTAGTAGTAAGAGTAAAACAAG
DNA 2: CTTGTTTTACTCTTACTACTACTTGGGC
In the case of B2, the binding result was “no binding”.
